Several values for one entry are separate records, joined by “and”; a condition that tells them apart may be missing. Equal values may be shown once.
B1: pyruvate kinase liver isoform phosphorylated at S113 (PKL pS113) (enzyme)
chain: not shown
modifications: phosphoserine at 113 (82.8% phosphorylated)
B2: pyruvate kinase liver isoform phosphorylated at S12 (PKL pS12) (enzyme)
chain: not shown
modifications: phosphoserine at 12 (71.2% phosphorylated)

Molecular target: the molecule itself
Test: native gel or EMSA + SEC

| Protein | stoichiometry N |
| --- | --- |
| B1 | 4 and 2 |
| B2 | 4 and 2 |
